Results taken from paper PMC7565430, “An Unbiased Immunization Strategy Results in the Identification of Enolase as a Potential Marker for Nanobody-Based Detection of Trypanosoma evansi” (Vaccines, 2020).

Columns and labels:
[1] = test system: T1, TevENO (T. evansi enolase); test: PYK/LDH coupled assay, NADH absorbance at […] nm, Michaelis-Menten fit; format: biochemical, Trypanosoma evansi; details: 0.1 M triethanolamine/HCl, pH 7.6, 25 °C, 2 mM MgSO4, 17 mM KCl, 1.1 mM ADP, 0.42 mM NADH; 2-PGA 0 to 1 mM
T1 construct: gene ENO; recombinant, codon-optimised gene in pET21b, E. coli BL21(DE3); N-terminal His6 tag and TEV cleavage site, tag cleavage not described

[2] = biological target: recombinant Trypanosoma evansi enolase (TevENO), His-tagged (Trypanosoma evansi); test: SEC; analytical SEC, ENrich SEC 650 10 x 300 column, buffer A (50 mM sodium phosphate, 5 mM MgCl2, pH 7.0); 500 μg TevENO, 168.9 μg Nb11, or mixtures at TevENO:Nb11 monomer ratios 2:1, 2:2, 2:3, 2:4 incubated 1 h; peaks analysed by SDS-PAGE
[3] = biological target: T2, recombinant Trypanosoma evansi enolase (TevENO), His-tagged (Trypanosoma evansi); test: ELISA; heterologous sandwich ELISA: His-tagged Nb11 coated at 1 μg/mL, TevENO 1 μg/mL in PBS, HA-tagged detection Nb at 1 μg/mL; details: both partners purified
T2 construct: monomer MM = 48.41 kDa as printed; also called T. evansi enolase; recombinant TevENO; source: E. coli BL21 (DE3), purified (IMAC, SEC)
T2 chain: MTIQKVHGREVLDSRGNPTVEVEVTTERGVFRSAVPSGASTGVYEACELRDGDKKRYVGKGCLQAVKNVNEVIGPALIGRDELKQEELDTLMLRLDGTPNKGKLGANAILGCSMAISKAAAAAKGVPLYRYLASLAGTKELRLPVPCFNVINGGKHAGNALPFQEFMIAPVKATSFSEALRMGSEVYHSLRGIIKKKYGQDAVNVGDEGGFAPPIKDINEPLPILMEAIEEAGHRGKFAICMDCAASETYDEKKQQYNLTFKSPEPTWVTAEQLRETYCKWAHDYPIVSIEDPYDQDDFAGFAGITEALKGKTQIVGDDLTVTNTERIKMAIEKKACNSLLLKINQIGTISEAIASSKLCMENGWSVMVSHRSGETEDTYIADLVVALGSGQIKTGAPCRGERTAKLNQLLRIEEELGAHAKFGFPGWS

O=C(O)[C@@H](CO)OP(=O)(O)O [2-PGA, 2-phosphoglycerate]
Km [1]: 52 µM

recombinant Trypanosoma evansi enolase (TevENO), His-tagged (enzyme)
stoichiometry N [2]: 2

B1: NbR1-10 (VHH)
VHH: QVQLQESGGGLVQPGGSLRLSCAAPGSIFSIFSGNIMGWYRQAPGKQRDFVASISSGGATNYADSVKGRFTISRDNAKNTVYLQMNNLKPEDTAVYYCNTVGGVHTNSWGQGTQVTVSS
notes: alpaca Nanobody; source: E. coli WK6, periplasmic extract, purified (His-Select Nickel resin, SEC)
binding result [3]: binds
